Legend:
[1] = biological target: SecV sensor (version not stated)
[2] = biological target: T1, SecV sensor, EDANS/DABCYL version (β-sec^V1 strand annealed to ES3) (not fully specified)
T1 chain: RKFEADLNVEERC

[3] = biological target: T2, SecV sensor, HiLyte-Fluor 488/QXL520 version (β-sec^V2 strand annealed to ES3) (not fully specified)
T2 chain: KFEADLNVEKC

B1: recombinant human BACE1 (beta-site APP cleaving enzyme 1), purified enzyme (ab271386, Abcam) (protein)
chain: TQHGIRLPLRSGLGGAPLGLRLPRETDEEPEEPGRRGSFVEMVDNLRGKSGQGYYVEMTVGSPPQTLNILVDTGSSNFAVGAAPHPFLHRYYQRQLSSTYRDLRKGVYVPYTQGKWEGELGTDLVSIPHGPNVTVRANIAAITESDKFFINGSNWEGILGLAYAEIARPDDSLEPFFDSLVKQTHVPNLFSLQLCGAGFPLNQSEVLASVGGSMIIGGIDHSLYTGSLWYTPIRREWYYEVIIVRVEINGQDLKMDCKEYNYDKSIVDSGTTNLRLPKKVFEAAVKSIKAASSTEKFPDGFWLGEQLVCWQAGTTPWNIFPVISLYLMGEVTNQSFRITILPQQYLRPVEDVATSQDDCYKFAISQSSTGTVMGAVIMEGFYVVFDRARKRIGFAVSACHVHDEFRTAAVEGPFVTLDMEDCGYNIPQTDESTLMT
lowest amount of BACE1 giving detectable change in sensor signal [1]: The SecV sensor showed detectable changes in signal from 8 ng and remains linear until 80 ng
upper end of linear range of sensor signal against amount of BACE1 [1]: The SecV sensor showed detectable changes in signal from 8 ng and remains linear until 80 ng
fold change in sensor response (G/R ratio), in vitro BACE1 activity assay [2]: A >3.0-fold change in sensor response was observed when EDANS and DABCYL were used as a FRET pair
fold change in sensor response (G/R ratio), in vitro BACE1 activity assay [3]: a >1.8-fold response when HyLite-488 and QXL520 were used as a FRET pair
fold change in the signal (G/R ratio), in vitro specificity assay [3]: upon addition of BACE1 the sensor showed a 1.8-fold change in the signal

— patent US20240241124
